125 sequences from the supplement of paper PMC9112550, “Optimization of the antimicrobial peptide Bac7 by deep mutational scanning” (BMC Biology, 2022) can be followed below.

This series concerns Escherichia coli TOP10. The series can be described thus: shrunken log2 fold change of peptide-encoding DNA abundance (4.5 h post-induction vs induction); higher = less antimicrobial activity (less host growth inhibition). The following applies: time post-induction: 4.5 h; library: site-saturation at positions 5, 18, 19, 20.
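Note: peptides expressed intracellularly from a pBAD plasmid library in pooled LB shake-flask culture, induced with 0.3% L-arabinose, DNA abundance read by NGS, three biological replicates, DESeq2 with apeglm shrinkage.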

For the sequence RRIRNRPPRLPRPRPRPCKTPRP, the “shrunken log2 fold change” value is -0.129. In the case of RRIRQRPPRLPRPRPRPICCPRP, the “shrunken log2 fold change” value was 0.259.

For the sequence RRIRARPPRLPRPRPRPKYPPRP, the “shrunken log2 fold change” value is -0.178. Turning to RRIRTRPPRLPRPRPRPNDCPRP, the “shrunken log2 fold change” value was 0.0184. For RRIRPRPPRLPRPRPRPAQTPRP the value was 0.177; for RRIRDRPPRLPRPRPRPLFEPRP, 0.7. Turning to RRIRKRPPRLPRPRPRPDWLPRP, the “shrunken log2 fold change” value amounted to 0.308.

On to RRIRSRPPRLPRPRPRPNGEPRP, for which the “shrunken log2 fold change” value is 0.0431. Turning to RRIRLRPPRLPRPRPRPQLPPRP, the “shrunken log2 fold change” value was found to be 0.178. Regarding RRIRLRPPRLPRPRPRPQRAPRP, the “shrunken log2 fold change” value turned out to be 0.309. For RRIRYRPPRLPRPRPRPIISPRP the value was -0.18; for RRIRSRPPRLPRPRPRPRSGPRP, 0.237. RRIRGRPPRLPRPRPRPSMMPRP: the “shrunken log2 fold change” value is 0.0755. For RRIRCRPPRLPRPRPRPPGCPRP, the “shrunken log2 fold change” value was found to be 0.412. For the sequence RRIRHRPPRLPRPRPRPSGTPRP, the “shrunken log2 fold change” value was -0.0258.

As for RRIRDRPPRLPRPRPRPENKPRP, the “shrunken log2 fold change” value stood at 0.0324.

Take RRIRNRPPRLPRPRPRPLSRPRP: the “shrunken log2 fold change” value was -0.124. Consider RRIRYRPPRLPRPRPRPELSPRP, for which the “shrunken log2 fold change” value turned out to be 0.0544.

As for RRIRARPPRLPRPRPRPEFYPRP, the “shrunken log2 fold change” value was determined as 0.329.

Consider RRIRVRPPRLPRPRPRPFAYPRP, for which the “shrunken log2 fold change” value is -0.528. In the case of RRIRNRPPRLPRPRPRPNYSPRP, the “shrunken log2 fold change” value is -0.364. With RRIRDRPPRLPRPRPRPPGDPRP, the “shrunken log2 fold change” value stood at 1.29. With RRIRARPPRLPRPRPRPMPGPRP, the “shrunken log2 fold change” value is -0.0941. Regarding RRIRWRPPRLPRPRPRPANSPRP, the “shrunken log2 fold change” value is 0.0236. RRIRTRPPRLPRPRPRPCFRPRP: the “shrunken log2 fold change” value was -0.0887. Turning to RRIRPRPPRLPRPRPRPETYPRP, the “shrunken log2 fold change” value is -0.0102.

For RRIRHRPPRLPRPRPRPQPLPRP, the “shrunken log2 fold change” value was -0.0863. With RRIRFRPPRLPRPRPRPCRHPRP, the “shrunken log2 fold change” value amounted to 0.0121. Turning to RRIRMRPPRLPRPRPRPAECPRP, the “shrunken log2 fold change” value turned out to be 0.042.

For RRIRYRPPRLPRPRPRPASQPRP, the “shrunken log2 fold change” value is -0.08. For the sequence RRIRYRPPRLPRPRPRPSLSPRP, the “shrunken log2 fold change” value is -0.623. Take RRIRLRPPRLPRPRPRPWCWPRP: the “shrunken log2 fold change” value came out at 0.0542. Consider RRIRCRPPRLPRPRPRPCTIPRP, for which the “shrunken log2 fold change” value worked out at 0.105. Consider RRIRTRPPRLPRPRPRPYHIPRP, for which the “shrunken log2 fold change” value was -1.06. As for RRIRIRPPRLPRPRPRPAMLPRP, the “shrunken log2 fold change” value is -0.22.

For the sequence RRIRFRPPRLPRPRPRPDEWPRP, the “shrunken log2 fold change” value amounted to 0.0983. Turning to RRIRTRPPRLPRPRPRPVYQPRP, the “shrunken log2 fold change” value is -0.0843. Take RRIRLRPPRLPRPRPRPRCKPRP: the “shrunken log2 fold change” value worked out at 0.0707. For RRIRLRPPRLPRPRPRPAPAPRP the value was 0.512. In the case of RRIRSRPPRLPRPRPRPAPCPRP, the “shrunken log2 fold change” value was 0.308. Take RRIRWRPPRLPRPRPRPHTAPRP: the “shrunken log2 fold change” value was -0.0505. For RRIRDRPPRLPRPRPRPFLIPRP, the “shrunken log2 fold change” value stood at 0.0926. For the sequence RRIRMRPPRLPRPRPRPTVCPRP, the “shrunken log2 fold change” value was 0.53. Next, RRIRGRPPRLPRPRPRPQTWPRP: 0.0175. With RRIRLRPPRLPRPRPRPLETPRP, the “shrunken log2 fold change” value is -0.0757. Take RRIRHRPPRLPRPRPRPCAVPRP: the “shrunken log2 fold change” value is -0.0171. For RRIRYRPPRLPRPRPRPSQCPRP, the “shrunken log2 fold change” value was -0.115. For the sequence RRIRPRPPRLPRPRPRPNSNPRP, the “shrunken log2 fold change” value is -0.762. On to RRIRFRPPRLPRPRPRPEVCPRP, for which the “shrunken log2 fold change” value is 0.00109. Consider RRIRVRPPRLPRPRPRPQMGPRP, for which the “shrunken log2 fold change” value was 0.00696. RRIRGRPPRLPRPRPRPEFAPRP: the “shrunken log2 fold change” value amounted to 1.22.

Turning to RRIRTRPPRLPRPRPRPMRNPRP, the “shrunken log2 fold change” value amounted to 0.356.

Consider RRIRYRPPRLPRPRPRPPRAPRP, for which the “shrunken log2 fold change” value was 0.403.

In the case of RRIRLRPPRLPRPRPRPVQCPRP, the “shrunken log2 fold change” value was 0.079. Take RRIRFRPPRLPRPRPRPVNDPRP: the “shrunken log2 fold change” value was -0.0167. For RRIRLRPPRLPRPRPRPAMRPRP, the “shrunken log2 fold change” value amounted to 0.28. Regarding RRIRRRPPRLPRPRPRPARGPRP, the “shrunken log2 fold change” value worked out at 0.731. On to RRIRMRPPRLPRPRPRPYCAPRP, for which the “shrunken log2 fold change” value was -0.515. On to RRIRNRPPRLPRPRPRPMCWPRP, for which the “shrunken log2 fold change” value was found to be 0.327. RRIRRRPPRLPRPRPRPQDIPRP: the “shrunken log2 fold change” value was -1.16.

In the case of RRIRCRPPRLPRPRPRPAMSPRP, the “shrunken log2 fold change” value was found to be 0.0552.

As to RRIRKRPPRLPRPRPRPTMMPRP, the “shrunken log2 fold change” value amounted to 0.316. Take RRIRIRPPRLPRPRPRPKKPPRP: the “shrunken log2 fold change” value came out at 0.0487. Regarding RRIRVRPPRLPRPRPRPWALPRP, the “shrunken log2 fold change” value was -0.112. For RRIRKRPPRLPRPRPRPCRHPRP, the “shrunken log2 fold change” value was -0.00769.

As to RRIRVRPPRLPRPRPRPWICPRP, the “shrunken log2 fold change” value is -0.358. With RRIRVRPPRLPRPRPRPRQRPRP, the “shrunken log2 fold change” value worked out at 0.622. RRIRLRPPRLPRPRPRPFSYPRP: the “shrunken log2 fold change” value was -0.747.

With RRIRPRPPRLPRPRPRPNKCPRP, the “shrunken log2 fold change” value was -0.26. For RRIRRRPPRLPRPRPRPGGVPRP the value was 0.483; for RRIRHRPPRLPRPRPRPEQMPRP, 0.023; for RRIRSRPPRLPRPRPRPDFKPRP, -0.0946.

As to RRIRLRPPRLPRPRPRPDADPRP, the “shrunken log2 fold change” value was determined as 1.25.

In the case of RRIRIRPPRLPRPRPRPGFRPRP, the “shrunken log2 fold change” value stood at 0.0935. On to RRIRFRPPRLPRPRPRPVDAPRP, for which the “shrunken log2 fold change” value stood at 0.183.

As for RRIRWRPPRLPRPRPRPEFHPRP, the “shrunken log2 fold change” value was 0.227. With RRIRTRPPRLPRPRPRPLKSPRP, the “shrunken log2 fold change” value is -0.0242. For RRIRERPPRLPRPRPRPMIVPRP the value was -0.477; for RRIRIRPPRLPRPRPRPRLIPRP, -0.199; for RRIRERPPRLPRPRPRPPTKPRP, 0.774. Regarding RRIRVRPPRLPRPRPRPKIYPRP, the “shrunken log2 fold change” value is -0.309. Take RRIRFRPPRLPRPRPRPIAQPRP: the “shrunken log2 fold change” value is -0.0298.

With RRIRSRPPRLPRPRPRPTRSPRP, the “shrunken log2 fold change” value amounted to 0.784. Take RRIRDRPPRLPRPRPRPREIPRP: the “shrunken log2 fold change” value was -0.00904.

As for RRIRWRPPRLPRPRPRPMIDPRP, the “shrunken log2 fold change” value is -0.579. Consider RRIRVRPPRLPRPRPRPAEIPRP, for which the “shrunken log2 fold change” value was -0.0984. Next, RRIRVRPPRLPRPRPRPADGPRP: 0.000767; RRIRIRPPRLPRPRPRPRAKPRP: 0.139; RRIRIRPPRLPRPRPRPDKEPRP: -0.0239. Turning to RRIRRRPPRLPRPRPRPSREPRP, the “shrunken log2 fold change” value was 0.962. On to RRIRLRPPRLPRPRPRPVHVPRP, for which the “shrunken log2 fold change” value was -0.0937. In the case of RRIRGRPPRLPRPRPRPSEHPRP, the “shrunken log2 fold change” value was 0.149. With RRIRQRPPRLPRPRPRPIHSPRP, the “shrunken log2 fold change” value is -0.138. For RRIRFRPPRLPRPRPRPDPNPRP, the “shrunken log2 fold change” value was -0.072.

In the case of RRIRSRPPRLPRPRPRPHEHPRP, the “shrunken log2 fold change” value came to 0.113.

Consider RRIRPRPPRLPRPRPRPREWPRP, for which the “shrunken log2 fold change” value came to 0.151. Next, RRIRLRPPRLPRPRPRPRCNPRP: -0.534; RRIRNRPPRLPRPRPRPQVNPRP: -0.129.

For RRIRGRPPRLPRPRPRPECPPRP, the “shrunken log2 fold change” value is 0.475. For RRIRGRPPRLPRPRPRPCEWPRP the value was -0.01. With RRIRQRPPRLPRPRPRPQTRPRP, the “shrunken log2 fold change” value is -0.0472. Take RRIRFRPPRLPRPRPRPHWFPRP: the “shrunken log2 fold change” value was -0.0545. For the sequence RRIRCRPPRLPRPRPRPPMIPRP, the “shrunken log2 fold change” value is -0.0902. Regarding RRIRLRPPRLPRPRPRPHTCPRP, the “shrunken log2 fold change” value is -0.339. Next, RRIRARPPRLPRPRPRPDCLPRP: 0.948; RRIRQRPPRLPRPRPRPQLGPRP: -0.194; RRIRVRPPRLPRPRPRPKATPRP: 0.266.

For RRIRYRPPRLPRPRPRPFHHPRP, the “shrunken log2 fold change” value was -1.19. As for RRIRFRPPRLPRPRPRPRYQPRP, the “shrunken log2 fold change” value is -0.738. Regarding RRIRCRPPRLPRPRPRPLAEPRP, the “shrunken log2 fold change” value is 0.242. Consider RRIRRRPPRLPRPRPRPSFMPRP, for which the “shrunken log2 fold change” value is -0.106. Consider RRIRPRPPRLPRPRPRPLCEPRP, for which the “shrunken log2 fold change” value is 0.0379. On to RRIRPRPPRLPRPRPRPARSPRP, for which the “shrunken log2 fold change” value came to 0.315. For RRIRRRPPRLPRPRPRPLYMPRP, the “shrunken log2 fold change” value was -0.15.

In the case of RRIRDRPPRLPRPRPRPFYSPRP, the “shrunken log2 fold change” value was -0.304.

With RRIRMRPPRLPRPRPRPSPTPRP, the “shrunken log2 fold change” value was 1.15. As for RRIRCRPPRLPRPRPRPCGSPRP, the “shrunken log2 fold change” value was -0.0815. With RRIRHRPPRLPRPRPRPADKPRP, the “shrunken log2 fold change” value was -0.245. As to RRIRYRPPRLPRPRPRPRHKPRP, the “shrunken log2 fold change” value was -0.208. Consider RRIRCRPPRLPRPRPRPVEQPRP, for which the “shrunken log2 fold change” value was -0.0247. Next, RRIRFRPPRLPRPRPRPEVRPRP: 0.14; RRIRHRPPRLPRPRPRPDSLPRP: -0.0392. Take RRIRHRPPRLPRPRPRPHDDPRP: the “shrunken log2 fold change” value was -0.0997. As to RRIRPRPPRLPRPRPRPMDSPRP, the “shrunken log2 fold change” value is -0.0149. For RRIRTRPPRLPRPRPRPRYVPRP the value was -0.426.
